Numbered stars: 1 amine (or outer) side, 2 acyl side, 3 side chain; on linkers, the order of the positions; unused ones are H or OH. Bridge positions count the residues as written; N and C are the ends. Square brackets hold non-standard residues; d marks the D form. Tyr(OMe) = COc1ccc(C[C@H](N[*:1])C(=O)[*:2])cc1; Trp(5-F) = N[C@@H](Cc1c[nH]c2ccc(F)cc12)C(=O)O; mXylylene = c1cc(C[*:1])cc(C[*:2])c1; Mpa = O=C(O)CCS
How the values were obtained:
biotinylated PCSK9 [1] = target: T1, biotinylated PCSK9 (UniProt Q8NBP7 31-692, limits assumed, biotinylated (site not stated)); assay: given in the description of the Alexa FRET Standard assay; method not stated
T1 construct: also called europium-labeled PCSK9

biotinylated PCSK9 [2] = target: T1, biotinylated PCSK9; assay: given in the description of the Alexa FRET Plus assay; method not stated

T1 sequence (Q8NBP7 31-692 limits assumed): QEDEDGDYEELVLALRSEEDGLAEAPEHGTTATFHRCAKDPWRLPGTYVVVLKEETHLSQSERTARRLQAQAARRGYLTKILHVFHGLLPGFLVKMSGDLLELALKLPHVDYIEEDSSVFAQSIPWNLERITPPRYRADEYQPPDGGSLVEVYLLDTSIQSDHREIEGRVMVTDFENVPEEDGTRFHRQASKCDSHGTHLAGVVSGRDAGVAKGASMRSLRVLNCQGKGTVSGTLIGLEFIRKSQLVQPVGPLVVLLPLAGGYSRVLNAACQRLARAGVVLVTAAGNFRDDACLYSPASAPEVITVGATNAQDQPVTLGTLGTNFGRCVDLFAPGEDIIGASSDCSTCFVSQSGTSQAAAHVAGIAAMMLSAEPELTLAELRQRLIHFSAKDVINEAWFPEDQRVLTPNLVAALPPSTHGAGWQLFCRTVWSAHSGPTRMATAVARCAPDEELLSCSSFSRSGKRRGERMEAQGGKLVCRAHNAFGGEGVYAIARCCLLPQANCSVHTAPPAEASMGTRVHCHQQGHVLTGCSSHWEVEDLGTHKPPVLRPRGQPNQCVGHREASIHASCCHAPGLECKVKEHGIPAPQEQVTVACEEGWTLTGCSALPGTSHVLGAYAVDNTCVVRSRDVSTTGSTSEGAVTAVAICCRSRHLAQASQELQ

Binder | Kd (biotinylated PCSK9 [1]) [nM] | Kd (biotinylated PCSK9 [2]) [nM]
[Mpa]K(ALEXAFLUOR 647)G[Trp(5-F)][Trp(5-F)]DHY[2‑methylproline]C-NH2 (linker N-10 via mXylylene, also called AlexaFluor647 (AF) tagged cyclic peptide; AF cyclic peptide) [Reagent A] | 83 | 
[Mpa]K(ALEXAFLUOR 647)[dA][Trp(5-F)][Trp(5-F)]DH[Tyr(OMe)][2‑methylproline]C-NH2 (linker N-10 via mXylylene, also called AlexaFluor647 (AF) tagged cyclic peptide; AF cyclic peptide) [Reagent B] |  | 35

Reference: US20220089640A1 (published 2022)
